Assay results: doi:10.1101/2021.05.19.444882

Columns and labels:
[1] = biological target: ChAdOx1 hexon protein (chimpanzee adenovirus Y25 (ChAdV-Y25)); experiment: cryo-EM structure
[2] = biological target: ChAdOx1 penton protein (chimpanzee adenovirus Y25 (ChAdV-Y25)); experiment: cryo-EM structure
[3] = biological target: ChAdOx1 fiber-knob protein (chimpanzee adenovirus Y25 (ChAdV-Y25)); experiment: crystal structure
[4] = biological target: ChAdOx1 pIX (chimpanzee adenovirus Y25 (ChAdV-Y25)); experiment: cryo-EM structure

ChAdOx1 hexon protein (natural protein) was tested, and the stoichiometry N [1] was 3.

“ChAdOx1 penton protein (natural protein)” gave a stoichiometry N [2] of 5.

With “ChAdOx1 fiber-knob protein (domain or fragment)” the stoichiometry N [3] was 3.

Work on ChAdOx1 pIX (natural protein) yielded a stoichiometry N [4] of 4.
